Data: PMC5943355

Biological target: Na+,HCO3- co-transporter NBCn1 (SLC4A7), native in MDCK-II cells (canine (endogenous in MDCK-II))
Test: proximity ligation; in situ PLA (Duolink II) with primary antibodies against NBCn1 and RACK1 in fixed non-confluent (60-70% confluency) MDCK-II or MCF-7 cells; control with only NBCn1 antibody

- PLA signal, fold above the control with only NBCn1 antibody: 8 fold
Substance: RACK1, native in MDCK-II cells (natural protein)
